Measurements taken from publication PMC2270309, “Insights into Mad2 Regulation in the Spindle Checkpoint Revealed by the Crystal Structure of the Symmetric Mad2 Dimer” (PLoS Biology, 2008).

How the values were obtained:
His6-O-Mad2^ΔN10 (human) = experiment: SEC; gel filtration of the high-salt peak (Q2) of anion exchange chromatography (holds the C-Mad2 conformer)
Human Cdc20 = Human Cdc20 (human, UniProt Q12834 1-499); experiment: cell-based or functional assay
[1] = molecular target: the molecule itself; experiment: SEC; gel filtration of the high-salt peak (Q2) of anion exchange chromatography (holds the C-Mad2 conformer)
[2] = molecular target: the molecule itself; experiment: AUC; sedimentation equilibrium at 4 °C; 0.23, 0.36 and 0.50 mg/ml; 20 mM Tris pH 8.0, 50 mM NaCl, 0.2 mM TCEP; 13,000, 17,500 and 25,000 rpm; global fit to a monomer-dimer equilibrium; dimer to monomers
[3] = molecular target: Mad2^Y156A (in the background of R133A) (human, UniProt Q13257 1-205, Y156A | R133A); experiment: ITC
[4] = molecular target: Mad2^L13A,R133A double mutant (human, UniProt Q13257 1-205, L13A | R133A); experiment: ITC
Mad2^R133A = Mad2^R133A (human, UniProt Q13257 1-205, R133A); experiment: ITC
[5] = molecular target: Mad2^L153A (in the background of R133A) (human, UniProt Q13257 1-205, L153A | R133A); experiment: ITC

Chain of Human Cdc20 (Q12834 whole entry): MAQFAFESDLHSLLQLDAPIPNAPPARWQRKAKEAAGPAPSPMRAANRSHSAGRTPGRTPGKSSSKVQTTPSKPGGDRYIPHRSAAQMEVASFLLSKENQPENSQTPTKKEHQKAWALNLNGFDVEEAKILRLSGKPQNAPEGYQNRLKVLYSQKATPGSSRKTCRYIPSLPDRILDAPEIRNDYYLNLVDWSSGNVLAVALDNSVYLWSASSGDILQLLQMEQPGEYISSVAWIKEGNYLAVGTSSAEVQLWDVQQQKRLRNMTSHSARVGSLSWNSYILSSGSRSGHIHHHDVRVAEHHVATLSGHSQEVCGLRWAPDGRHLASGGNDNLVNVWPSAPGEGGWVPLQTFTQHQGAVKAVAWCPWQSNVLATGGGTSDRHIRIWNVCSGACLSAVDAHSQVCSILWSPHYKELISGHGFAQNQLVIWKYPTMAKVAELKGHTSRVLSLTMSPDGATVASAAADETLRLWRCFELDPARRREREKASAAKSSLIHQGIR

untagged C-Mad2^ΔN10 (domain or fragment)
stoichiometry N (His6-O-Mad2^ΔN10 (human)): 1

B1: Mad2^L13A,C79S,C106S triple mutant (natural protein, human, UniProt Q13257 1-205, looked up)
chain: MALQLSREQGITARGSAEIVAEFFSFGINSILYQRGIYPSETFTRVQKYGLTLLVTTDLELIKYLNNVVEQLKDWLYKSSVQKLVVVISNIESGEVLERWQFDIESDKTAKDDSAPREKSQKAIQDEIRSVIRQITATVTFLPLLEVSCSFDLLIYTDKDLVVPEKWEESGPQFITNSEEVRLRSFTTTIHKVNSMVAYKIPVND
notes: Mad2, human, coding region (205 residues), with L13A, C79S and C106S; also called Mad2^L13A dimer; symmetric C–C Mad2 dimer; source: E. coli BL21 (pGEX), purified (glutathione-Sepharose, TEV cleavage, anion exchange, gel filtration)
inhibition of APC/C^Cdc20 in an in vitro reconstituted APC/C ubiquitination assay (Myc-cyclin B1); Mad2 dimers at 1–16 μM preincubated with Cdc20 for 30 min (Human Cdc20): ~3 fold | stoichiometry N [1]: 2 | Kd [2]: 0.25 µM | stoichiometry N [2]: ~2

B2: Mad2-binding motif of Cdc20 (domain or fragment)
chain: EHQKAWALNLNGFDVEEAKILRLSGKPQ
modifications: Limits not printed. 111-138 is the conventional Mad2-binding fragment of human Cdc20 around the KILR motif (129-132). Check residues come from the candidate's motif feature, not from the paper.
Kd [3]: 0.56 µM | Kd [4]: 0.12 µM | Kd (Mad2^R133A): 0.14 µM | Kd [5]: 0.21 µM
